Experimental findings from the supplement of paper PMC11811203 are described below.

The labels stand for the following.
B1: THAP1; numbered along this chain (parent)
chain: MVQSCSAYGCKNRYDKDKPVSFHKFPLTRPSLCKEWEAAVRRKNFKPTKYSSICSEHFTPDCFKRECNNKLLKENAVPTIFLCTEPHDKKEDLLEPQEQLPPPPLPPPVSQVDAAIGLLMPPLQTPVNLSVFCDHNYTVEDTMHQRKRIHQLEQQVEKLRKKLKTAQQRCRRQERQLEKLKEVVHFQKEKDDVSERGYVILPNDYFEIVEVPA

In the series the parent is B1. Nature of the series: THAP1 transcriptional activity (GFP+/GFP- enrichment relative to wild-type constructs) (ratio to WT); higher = more THAP1 activity (PSMB5 reporter activation). The conditions noted are these: with PSMB5 promoter-GFP reporter. The procedure, abridged:
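A lentiviral site-saturation library covering residues 2–213 of human THAP1, with each position changed to all 20 amino acids, was transduced in duplicate at MOI ~0.3 into THAP1-knockout HEK-293T cells with mClover3 knocked in at endogenous PSMB5. Five days later, BFP+ cells were sorted into GFP-dim and GFP-bright bins and variants were counted by Illumina sequencing of genomic DNA amplicons. Activity is the bright/dim read fold change averaged over replicates and divided by the mean of wild-type synonymous constructs.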
As for H87M, the THAP1 transcriptional activity came to 2.74.

In the case of H87P, the THAP1 transcriptional activity came to 3.55.

Consider L129T, for which the THAP1 transcriptional activity amounted to 1.05.

L123K: the THAP1 transcriptional activity worked out at 0.809.

With L123Y, the THAP1 transcriptional activity is 0.693.

Take L123P: the THAP1 transcriptional activity worked out at 1.05.

As for L123I, the THAP1 transcriptional activity amounted to 0.913.

In the case of K43E, the THAP1 transcriptional activity turned out to be 0.598.

Take K43A: the THAP1 transcriptional activity was determined as 0.587.

Consider K43Q, for which the THAP1 transcriptional activity came out at 1.02.

K43M: the THAP1 transcriptional activity came out at 0.434.

On to D134T, for which the THAP1 transcriptional activity was 0.354.

Take F132W: the THAP1 transcriptional activity was 0.329.

Regarding F132H, the THAP1 transcriptional activity was 1.03.

For the variant K179F, the THAP1 transcriptional activity worked out at 0.421.

In the case of D88H, the THAP1 transcriptional activity stood at 0.413.

D88F: the THAP1 transcriptional activity was found to be 0.918.

With R148M, the THAP1 transcriptional activity stood at 0.261.

With K162H, the THAP1 transcriptional activity was 0.273.

Turning to K162A, the THAP1 transcriptional activity was 0.4.

Turning to K190T, the THAP1 transcriptional activity stood at 1.35.

For the variant E74I, the THAP1 transcriptional activity worked out at 0.327.

On to L94Y, for which the THAP1 transcriptional activity turned out to be 1.34.

L94P: the THAP1 transcriptional activity was found to be 1.67.

As to K90R, the THAP1 transcriptional activity amounted to 0.598.

With Y14K, the THAP1 transcriptional activity was determined as 0.083.

For the variant N68H, the THAP1 transcriptional activity is 0.2.

For the variant F206I, the THAP1 transcriptional activity came out at 1.27.

As to E174V, the THAP1 transcriptional activity is 0.568.

As for A114V, the THAP1 transcriptional activity was determined as 0.296.

As for L105G, the THAP1 transcriptional activity turned out to be 1.09.

For P26F, the THAP1 transcriptional activity stood at 0.0724.

On to T84F, for which the THAP1 transcriptional activity was determined as 1.21.

Regarding T84H, the THAP1 transcriptional activity is 0.92.

As to P101V, the THAP1 transcriptional activity turned out to be 0.772.

Take L152W: the THAP1 transcriptional activity stood at 0.246.

With L152M, the THAP1 transcriptional activity is 0.249.

Consider L152H, for which the THAP1 transcriptional activity worked out at 0.215.

With V127G, the THAP1 transcriptional activity was determined as 0.609.

Consider P102E, for which the THAP1 transcriptional activity was 1.85.

On to P102I, for which the THAP1 transcriptional activity is 1.31.

Turning to V211S, the THAP1 transcriptional activity is 1.03.

With P19N, the THAP1 transcriptional activity worked out at 0.682.

Consider P19T, for which the THAP1 transcriptional activity was 0.681.

As for V184H, the THAP1 transcriptional activity is 0.994.

For V184Y, the THAP1 transcriptional activity amounted to 0.826.

L72Q: the THAP1 transcriptional activity turned out to be 0.163.

As to T125Y, the THAP1 transcriptional activity was 0.322.

L201M: the THAP1 transcriptional activity is 0.715.

Consider P108C, for which the THAP1 transcriptional activity worked out at 0.724.

Take P108F: the THAP1 transcriptional activity came to 0.519.

Consider K18I, for which the THAP1 transcriptional activity was 0.444.

Take Q154I: the THAP1 transcriptional activity amounted to 0.779.

As to V112H, the THAP1 transcriptional activity is 0.743.

Consider F45P, for which the THAP1 transcriptional activity came to 0.114.

As to F45T, the THAP1 transcriptional activity came out at 0.0941.

In the case of F45N, the THAP1 transcriptional activity amounted to 0.108.

E153R: the THAP1 transcriptional activity amounted to 0.491.

On to V199Y, for which the THAP1 transcriptional activity was found to be 0.918.

For the variant V199M, the THAP1 transcriptional activity came to 0.728.

With P202L, the THAP1 transcriptional activity was determined as 0.884.

As for P202S, the THAP1 transcriptional activity was 0.869.

Regarding P202K, the THAP1 transcriptional activity amounted to 0.636.

Regarding Q97A, the THAP1 transcriptional activity was determined as 0.83.

Turning to R172C, the THAP1 transcriptional activity was found to be 0.157.

For the variant R172L, the THAP1 transcriptional activity worked out at 0.328.

Consider H185M, for which the THAP1 transcriptional activity was found to be 0.723.

In the case of H185C, the THAP1 transcriptional activity was 0.951.

For P96T, the THAP1 transcriptional activity was determined as 1.6.

With P96E, the THAP1 transcriptional activity is 0.84.

Consider P96V, for which the THAP1 transcriptional activity amounted to 0.729.

Consider E178W, for which the THAP1 transcriptional activity was 0.7.

Consider P60H, for which the THAP1 transcriptional activity is 0.509.

For R41T, the THAP1 transcriptional activity was 0.171.

For R41P, the THAP1 transcriptional activity was found to be 0.0904.

On to D15H, for which the THAP1 transcriptional activity is 0.997.

With E98Y, the THAP1 transcriptional activity amounted to 0.675.

On to E98S, for which the THAP1 transcriptional activity turned out to be 1.19.

Take E98D: the THAP1 transcriptional activity came to 1.77.

As to E207N, the THAP1 transcriptional activity worked out at 0.625.

Regarding E207S, the THAP1 transcriptional activity was 0.559.

E207Q: the THAP1 transcriptional activity amounted to 1.02.

Take N203V: the THAP1 transcriptional activity was 0.886.

Regarding N203P, the THAP1 transcriptional activity is 0.855.
